Test system: peptide library, one residue held at a place counted from the S/T acceptor
Test: relative phosphorylation of the sub-library (ratio to the mean residue at this position); higher = residue favoured
How it was run: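 In 384-well plates, purified recombinant kinases (human or orthologue constructs) were incubated for 90 min under kinase-specific conditions with 50 μM biotinylated degenerate peptide sub-libraries and 50 μM ATP spiked with γ-32P-ATP. Each sub-library fixed a single residue at one position around a central Ser/Thr. Relative sub-library phosphorylation, measured by phosphorimaging and densitometry of streptavidin membrane spots, is given as a ratio to the mean residue at that position.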

Chain of NEK3, construct: Full length, human (P51956 whole entry, looked up): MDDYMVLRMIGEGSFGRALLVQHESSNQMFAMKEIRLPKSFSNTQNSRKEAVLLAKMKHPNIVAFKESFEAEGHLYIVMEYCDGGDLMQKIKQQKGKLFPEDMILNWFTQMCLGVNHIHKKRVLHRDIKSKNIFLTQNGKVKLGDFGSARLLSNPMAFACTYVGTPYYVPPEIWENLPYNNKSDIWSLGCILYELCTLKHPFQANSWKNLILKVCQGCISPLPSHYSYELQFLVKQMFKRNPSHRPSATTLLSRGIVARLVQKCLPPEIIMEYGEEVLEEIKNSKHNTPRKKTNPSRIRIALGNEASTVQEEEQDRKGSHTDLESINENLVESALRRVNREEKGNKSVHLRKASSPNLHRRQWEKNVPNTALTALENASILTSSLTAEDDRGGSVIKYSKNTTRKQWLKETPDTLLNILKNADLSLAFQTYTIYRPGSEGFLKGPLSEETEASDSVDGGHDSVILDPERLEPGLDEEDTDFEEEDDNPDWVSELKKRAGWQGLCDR
Chain of ATR, construct: Full length, human (Q13535 whole entry, looked up): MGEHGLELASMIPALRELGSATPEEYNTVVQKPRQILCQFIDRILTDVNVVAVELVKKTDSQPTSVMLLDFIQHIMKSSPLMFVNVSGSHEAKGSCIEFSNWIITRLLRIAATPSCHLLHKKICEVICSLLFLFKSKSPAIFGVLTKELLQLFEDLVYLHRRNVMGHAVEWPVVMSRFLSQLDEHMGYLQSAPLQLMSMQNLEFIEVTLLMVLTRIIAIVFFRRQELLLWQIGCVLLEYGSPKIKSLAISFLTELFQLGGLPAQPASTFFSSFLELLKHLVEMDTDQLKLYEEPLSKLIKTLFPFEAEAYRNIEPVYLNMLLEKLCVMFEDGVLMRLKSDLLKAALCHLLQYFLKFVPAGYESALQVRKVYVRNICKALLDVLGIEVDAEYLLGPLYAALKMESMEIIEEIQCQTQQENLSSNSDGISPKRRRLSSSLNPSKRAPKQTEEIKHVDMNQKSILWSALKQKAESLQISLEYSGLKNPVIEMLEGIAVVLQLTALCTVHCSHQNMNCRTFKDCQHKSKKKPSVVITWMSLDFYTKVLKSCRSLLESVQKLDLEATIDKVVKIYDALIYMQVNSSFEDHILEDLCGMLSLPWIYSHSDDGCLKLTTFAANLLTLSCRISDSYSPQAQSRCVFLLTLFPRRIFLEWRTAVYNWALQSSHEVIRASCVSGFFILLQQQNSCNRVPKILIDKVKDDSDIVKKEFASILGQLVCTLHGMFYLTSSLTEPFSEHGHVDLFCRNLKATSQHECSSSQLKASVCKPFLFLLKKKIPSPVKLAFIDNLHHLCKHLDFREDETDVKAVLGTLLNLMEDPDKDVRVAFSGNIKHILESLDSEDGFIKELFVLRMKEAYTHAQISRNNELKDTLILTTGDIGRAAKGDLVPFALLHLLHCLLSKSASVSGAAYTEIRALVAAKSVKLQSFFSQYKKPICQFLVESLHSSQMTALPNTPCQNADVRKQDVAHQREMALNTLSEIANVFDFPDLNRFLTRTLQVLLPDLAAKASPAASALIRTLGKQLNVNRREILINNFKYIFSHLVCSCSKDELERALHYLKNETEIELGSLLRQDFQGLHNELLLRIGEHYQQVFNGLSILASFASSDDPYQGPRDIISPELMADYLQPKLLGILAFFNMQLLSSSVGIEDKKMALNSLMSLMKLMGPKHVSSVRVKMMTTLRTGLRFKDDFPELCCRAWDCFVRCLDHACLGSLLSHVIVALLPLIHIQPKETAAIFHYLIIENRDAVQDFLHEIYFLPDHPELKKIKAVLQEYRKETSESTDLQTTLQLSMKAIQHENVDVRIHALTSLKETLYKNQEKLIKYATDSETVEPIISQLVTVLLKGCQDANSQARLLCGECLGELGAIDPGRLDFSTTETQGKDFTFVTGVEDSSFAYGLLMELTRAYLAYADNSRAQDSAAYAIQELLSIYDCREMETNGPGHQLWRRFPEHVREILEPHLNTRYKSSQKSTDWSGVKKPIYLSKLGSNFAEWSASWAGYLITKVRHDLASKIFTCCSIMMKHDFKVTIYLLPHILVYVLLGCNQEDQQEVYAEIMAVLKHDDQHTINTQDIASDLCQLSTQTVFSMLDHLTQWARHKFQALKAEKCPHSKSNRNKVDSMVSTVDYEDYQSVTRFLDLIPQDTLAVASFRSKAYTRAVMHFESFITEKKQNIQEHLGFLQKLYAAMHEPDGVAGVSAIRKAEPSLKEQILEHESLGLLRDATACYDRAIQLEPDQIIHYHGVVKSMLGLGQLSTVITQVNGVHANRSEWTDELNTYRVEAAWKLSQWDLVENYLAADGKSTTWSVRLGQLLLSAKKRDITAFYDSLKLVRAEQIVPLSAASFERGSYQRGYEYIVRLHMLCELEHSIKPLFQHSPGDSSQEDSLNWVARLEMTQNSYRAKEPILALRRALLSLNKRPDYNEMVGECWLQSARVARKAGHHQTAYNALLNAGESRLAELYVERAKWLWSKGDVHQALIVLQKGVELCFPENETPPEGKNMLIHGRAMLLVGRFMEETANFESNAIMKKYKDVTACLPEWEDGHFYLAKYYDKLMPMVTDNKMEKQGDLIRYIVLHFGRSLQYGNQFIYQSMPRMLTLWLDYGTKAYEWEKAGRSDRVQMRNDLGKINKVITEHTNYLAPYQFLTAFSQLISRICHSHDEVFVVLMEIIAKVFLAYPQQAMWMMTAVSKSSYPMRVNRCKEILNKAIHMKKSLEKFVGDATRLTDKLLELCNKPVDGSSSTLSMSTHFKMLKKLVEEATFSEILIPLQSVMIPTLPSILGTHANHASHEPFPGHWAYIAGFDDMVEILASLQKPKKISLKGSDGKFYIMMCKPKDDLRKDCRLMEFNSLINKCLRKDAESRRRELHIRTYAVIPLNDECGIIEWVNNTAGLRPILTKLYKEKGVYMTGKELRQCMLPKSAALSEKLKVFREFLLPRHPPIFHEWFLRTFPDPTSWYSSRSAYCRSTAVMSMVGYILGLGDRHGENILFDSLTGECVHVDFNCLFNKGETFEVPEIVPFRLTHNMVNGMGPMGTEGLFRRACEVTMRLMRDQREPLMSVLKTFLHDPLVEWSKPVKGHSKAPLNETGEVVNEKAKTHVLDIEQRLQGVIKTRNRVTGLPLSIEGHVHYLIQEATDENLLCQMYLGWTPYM
Chain of CDK7, construct: Full length, human (P50613 whole entry, looked up): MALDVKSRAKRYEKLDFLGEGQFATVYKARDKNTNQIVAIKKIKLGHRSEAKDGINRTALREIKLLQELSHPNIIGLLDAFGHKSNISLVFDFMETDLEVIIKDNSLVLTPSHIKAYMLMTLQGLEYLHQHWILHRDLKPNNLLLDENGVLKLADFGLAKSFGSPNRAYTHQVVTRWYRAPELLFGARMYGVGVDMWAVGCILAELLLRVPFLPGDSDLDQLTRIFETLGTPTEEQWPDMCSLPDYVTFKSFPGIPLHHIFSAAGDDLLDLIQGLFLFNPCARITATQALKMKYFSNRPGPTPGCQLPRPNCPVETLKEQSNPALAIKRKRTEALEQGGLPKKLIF
Chain of BMPR1A, construct: aa187-end, human (P36894 187-532, looked up): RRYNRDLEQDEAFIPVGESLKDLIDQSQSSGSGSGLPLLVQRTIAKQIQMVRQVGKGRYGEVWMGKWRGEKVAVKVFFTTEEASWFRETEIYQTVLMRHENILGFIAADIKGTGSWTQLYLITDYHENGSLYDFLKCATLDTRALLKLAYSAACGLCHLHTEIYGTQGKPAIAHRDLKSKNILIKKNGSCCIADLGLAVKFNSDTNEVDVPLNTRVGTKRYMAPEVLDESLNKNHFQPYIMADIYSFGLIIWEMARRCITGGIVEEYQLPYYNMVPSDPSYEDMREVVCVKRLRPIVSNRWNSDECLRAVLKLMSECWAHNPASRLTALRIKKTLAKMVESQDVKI

ATR, construct: Full length, human (from UniProt Q13535)
relative phosphorylation
Conditions	at +1	at +2	at +3	at +4	at -1	at -2	at -3	at -4	at -5
A fixed	0.714	1.01	1.05	1.05	1.46	1.01	1.01	0.94	0.971
D fixed	0.582	1.07	1.13	0.968	0.86	0.785	0.814	0.984	1.17
E fixed	0.586	1.07	1.21	0.929	0.742	0.871	0.88	1.18	1.07
F fixed	0.709	0.913	0.944	0.988	0.872	0.957	1.08	1.18	1.3
G fixed	0.651	0.921	0.965	1.13	1.26	0.839	0.875	1.05	1.01
H fixed	0.624	1.06	0.991	1.02	0.845	0.973	0.889	0.982	1.01
I fixed	0.747	0.898	0.866	0.875	0.687	0.793	1.1	0.912	0.818
K fixed	0.649	0.923	0.877	0.928	0.806	1.09	0.911	0.919	0.884
L fixed	0.73	0.871	0.887	0.993	1.26	0.84	1.18	0.901	0.901
M fixed	0.685	0.908	0.92	0.995	0.978	0.94	1.12	0.96	0.931
N fixed	0.933	1.05	1	1.02	1.17	0.945	0.816	0.892	0.877
P fixed	0.689	1.14	1.18	1.19	1.45	1.59	0.972	0.956	0.909
Q fixed	5.91	1.23	1.09	0.994	1.2	1.03	0.859	0.926	0.871
R fixed	0.83	1.09	0.972	0.97	0.855	1.67	1.62	0.982	1
V fixed	0.665	0.967	0.988	0.849	0.725	0.768	0.884	0.867	0.802
W fixed	0.618	0.926	0.934	1.11	0.842	0.916	1.08	1.26	1.23
Y fixed	0.671	0.971	1	0.984	0.987	0.99	0.911	1.11	1.23
pThr fixed	0.679	0.968	1.36	1.1	0.799	0.849	0.99	1.38	1.3
pTyr fixed	0.62	1.01	1.03	1.44	0.904	1.14	1.83	2.14	1.62

CDK7, construct: Full length, human (from UniProt P50613)
relative phosphorylation
Conditions	at +1	at +2	at +3	at +4	at -1	at -2	at -3	at -4	at -5
A fixed	0.369	1.2	1.11	0.982	0.638	1.14	1.06	1.05	1.12
D fixed	0.303	0.747	0.502	0.558	0.367	0.385	0.671	0.621	0.658
E fixed	0.274	0.589	0.433	0.506	0.276	0.408	0.598	0.586	0.518
F fixed	0.271	0.709	1.05	1	0.977	0.484	0.676	0.812	1.01
G fixed	0.981	1.34	1.04	1.22	0.999	0.965	1.44	1.24	1.12
H fixed	0.317	1.06	1.02	1.24	0.9	0.586	0.936	1.16	1.36
I fixed	0.339	0.81	0.854	0.956	0.385	1.28	0.647	0.734	0.728
K fixed	0.288	1.13	0.904	0.814	1.27	0.802	1.26	1.25	1.3
L fixed	0.33	0.774	1.05	0.932	1.04	1.18	0.608	0.81	0.863
M fixed	0.333	0.871	1.02	1.04	1.09	0.978	0.793	0.975	0.878
N fixed	0.449	1.13	0.826	0.937	0.602	0.818	0.949	1.11	0.986
P fixed	11.1	1.57	1.34	1.18	1.02	3.51	2	1.37	1.07
Q fixed	0.354	1.04	0.831	1.07	0.919	0.781	1.06	1.03	0.845
R fixed	0.294	1.36	0.624	0.727	1.56	1.14	1.87	1.31	1.22
V fixed	0.417	0.9	1.04	0.878	0.62	1.3	0.842	0.681	0.693
W fixed	0.304	0.802	1.32	1.47	3.04	0.639	0.774	1.16	1.49
Y fixed	0.283	0.982	2.04	1.48	1.29	0.605	0.825	1.1	1.14
pThr fixed	0.469	0.566	0.573	0.503	0.352	0.645	0.713	0.697	0.612
pTyr fixed	0.357	0.583	0.641	0.713	0.475	0.37	0.568	0.63	0.522

NEK3, construct: Full length, human (from UniProt P51956)
relative phosphorylation
Conditions	at +1	at +2	at +3	at +4	at -1	at -2	at -3	at -4	at -5
A fixed	0.842	0.788	1.09	0.919	1.02	0.977	1.09	1.16	1.06
D fixed	0.145	0.299	0.257	0.346	0.588	0.551	0.343	0.456	0.653
E fixed	0.12	0.323	0.219	0.321	0.496	0.632	0.36	0.511	0.632
F fixed	1.67	0.786	1.1	0.796	0.841	1.37	1.98	1.43	1.05
G fixed	0.687	1.41	1.42	1.64	1.33	1.45	1.51	1.28	1.25
H fixed	1.13	1.45	1.07	1.35	1.45	1.21	1.11	1.03	1.17
I fixed	1.65	0.967	1.12	0.984	0.629	0.749	0.642	0.798	0.97
K fixed	0.579	1.4	1.07	1.24	1.07	0.866	0.478	1.02	1.1
L fixed	1.29	0.674	1.22	0.841	0.865	1.19	1.65	1.09	0.959
M fixed	1.94	1.09	1.05	0.982	1.59	1.42	1.87	1.2	1.27
N fixed	0.416	1.21	0.721	1.05	1.03	0.903	0.657	0.848	1.02
P fixed	0.351	0.719	1.2	1.38	0.204	0.259	0.495	0.597	0.821
Q fixed	0.719	0.826	0.873	0.769	0.846	0.826	0.561	0.867	0.74
R fixed	0.807	2.17	1.28	1.6	2	0.822	1.05	1.05	1.54
V fixed	1.66	0.904	1.01	0.768	0.739	0.734	0.486	0.823	0.7
W fixed	1.56	0.774	1.27	1.08	0.938	1.49	1.42	1.79	0.993
Y fixed	1.42	1.21	1.05	0.958	1.36	1.55	1.28	1.05	1.07
pThr fixed	0.188	0.183	0.26	0.166	0.146	0.255	0.386	0.57	0.612
pTyr fixed	0.165	0.278	0.254	0.254	0.414	0.612	0.399	0.446	0.642

BMPR1A, construct: aa187-end, human (from UniProt P36894)
relative phosphorylation
Conditions	at +1	at +2	at +3	at +4	at -1	at -2	at -3	at -4	at -5
A fixed	0.574	0.952	0.911	0.854	0.648	0.721	0.791	0.912	0.982
D fixed	2.03	1.24	1.79	1.3	1.72	1.97	2.32	2.47	1.88
E fixed	6.79	1.52	1.55	1.31	1.95	7.73	2.92	1.81	1.65
F fixed	0.398	0.622	0.89	0.889	0.797	0.384	0.65	0.792	0.807
G fixed	0.58	1.89	0.941	1	0.483	0.579	0.948	0.958	0.93
H fixed	0.431	1.25	0.889	1.06	0.983	0.483	0.826	0.987	1.02
I fixed	0.677	0.554	1.01	1.01	0.809	0.432	0.662	0.781	0.83
K fixed	0.335	0.803	0.498	0.738	0.587	0.351	0.564	0.741	0.86
L fixed	0.417	0.613	0.926	0.797	1.17	0.453	0.649	0.701	0.802
M fixed	0.57	0.721	0.85	0.922	1.67	0.462	0.859	0.808	0.791
N fixed	0.668	0.776	0.793	0.946	1.01	0.693	1.24	1.08	1.22
P fixed	0.265	1.31	0.936	0.964	0.466	0.401	0.74	0.775	0.699
Q fixed	0.644	0.735	0.729	0.931	1.13	0.659	1.02	0.892	0.908
R fixed	0.314	0.691	0.478	0.767	0.555	0.395	0.636	0.718	0.886
V fixed	1.47	0.632	1.13	0.961	1.23	0.545	0.731	0.887	0.832
W fixed	0.421	1.14	1.46	1.38	0.77	0.392	0.676	0.887	0.965
Y fixed	0.417	1.55	1.21	1.18	1.02	0.349	0.755	0.791	0.928
pThr fixed	5.36	1.98	1.01	1.31	1.08	1.66	2.19	1.53	1.46
pTyr fixed	1.09	0.876	1.35	1.22	1.54	0.763	1.55	1.09	1.42
